From publication PMC7755903 (Nature Communications, 2020) come the findings set out here.

B1: humanized E104.v1 IgG1 (antibody, V domains shown)
VH: EVQLVESGPGLVKPSETLSLTCTVSRFSLIGYAITWIRQPPGKGLEWIGGISSAATTFYSSWAKSRVTISVDTSKNQFSLKLSSVTAADTAVYYCARDPRGYGAALDRLDLWGQGTLVTVSS
VL: DIQMTQSPSSLSASVGDRVTITCQSIKSVYNNRLGWYQQKPGKAPKLLIYETSILTSGVPSRFSGSGSGTDFTLTISSLQPEDFATYYCAGGFDRSGDTTFGQGTKVEIK
notes: variable domain of the heavy chain as in m6 (PDB 6VVU, Fab heavy chain); human IgG1 heavy chain constant region; as the light chain of m6 (PDB 6VVU, Fab light chain); IgG1; also called IgG1.v1; source: 293 cells, transient transfection, purified (MabSelect SuRe, SEC); copies: 2 + 2
B2: E104.v2 IgG1 hinge variant G1.P5 (antibody, V domains shown)
VH: EVQLVESGPGLVKPSETLSLTCTVSRFSLIGYAITWIRQPPGKGLEWIGGISSAATTFYSSWAKSRVTISRDTSKNQVSLKLSSVTAADTAVYYCARDPRGYGAALDRLDLWGQGTLVTVSS
VL: DIQMTQSPSSLSASVGDRVTITCQSIKSVYNNRLGWYQQKPGKAPKLLIYETSILTSGVPSRFSGSGSGTDFTLTISSLQPEDFATYYCAGGFDRSGDTTFGQGTKVEIK
notes: variable domain of the heavy chain as in m6 (PDB 6VVU, Fab heavy chain) with V71R and F78V (Kabat numbering); human IgG1 heavy chain constant region before the upper hinge (CH1); upper hinge of the variant; human IgG1 heavy chain constant region after the upper hinge (core hinge from C226, CH2, CH3); as the light chain of m6 (PDB 6VVU, Fab light chain); IgG1 with five prolines in the upper hinge; …
B3: E104.v2 IgG1 hinge variant G1-H (antibody, V domains shown)
VH: EVQLVESGPGLVKPSETLSLTCTVSRFSLIGYAITWIRQPPGKGLEWIGGISSAATTFYSSWAKSRVTISRDTSKNQVSLKLSSVTAADTAVYYCARDPRGYGAALDRLDLWGQGTLVTVSS
VL: DIQMTQSPSSLSASVGDRVTITCQSIKSVYNNRLGWYQQKPGKAPKLLIYETSILTSGVPSRFSGSGSGTDFTLTISSLQPEDFATYYCAGGFDRSGDTTFGQGTKVEIK
notes: variable domain of the heavy chain as in m6 (PDB 6VVU, Fab heavy chain) with V71R and F78V (Kabat numbering); human IgG1 heavy chain constant region before the upper hinge (CH1); upper hinge of the variant; human IgG1 heavy chain constant region after the upper hinge (core hinge from C226, CH2, CH3); as the light chain of m6 (PDB 6VVU, Fab light chain); IgG1 with a shortened upper hinge; source: …
B4: E104.v2 IgG1 hinge variant G1 + G (antibody, V domains shown)
VH: EVQLVESGPGLVKPSETLSLTCTVSRFSLIGYAITWIRQPPGKGLEWIGGISSAATTFYSSWAKSRVTISRDTSKNQVSLKLSSVTAADTAVYYCARDPRGYGAALDRLDLWGQGTLVTVSS
VL: DIQMTQSPSSLSASVGDRVTITCQSIKSVYNNRLGWYQQKPGKAPKLLIYETSILTSGVPSRFSGSGSGTDFTLTISSLQPEDFATYYCAGGFDRSGDTTFGQGTKVEIK
notes: variable domain of the heavy chain as in m6 (PDB 6VVU, Fab heavy chain) with V71R and F78V (Kabat numbering); human IgG1 heavy chain constant region before the upper hinge (CH1); upper hinge of the variant; human IgG1 heavy chain constant region after the upper hinge (core hinge from C226, CH2, CH3); as the light chain of m6 (PDB 6VVU, Fab light chain); IgG1 with an extended upper hinge; source: …
B5: E104.v2 IgG1 hinge variant G1.G5 (antibody, V domains shown)
VH: EVQLVESGPGLVKPSETLSLTCTVSRFSLIGYAITWIRQPPGKGLEWIGGISSAATTFYSSWAKSRVTISRDTSKNQVSLKLSSVTAADTAVYYCARDPRGYGAALDRLDLWGQGTLVTVSS
VL: DIQMTQSPSSLSASVGDRVTITCQSIKSVYNNRLGWYQQKPGKAPKLLIYETSILTSGVPSRFSGSGSGTDFTLTISSLQPEDFATYYCAGGFDRSGDTTFGQGTKVEIK
notes: variable domain of the heavy chain as in m6 (PDB 6VVU, Fab heavy chain) with V71R and F78V (Kabat numbering); human IgG1 heavy chain constant region before the upper hinge (CH1); upper hinge of the variant; human IgG1 heavy chain constant region after the upper hinge (core hinge from C226, CH2, CH3); as the light chain of m6 (PDB 6VVU, Fab light chain); IgG1 with five glycines in the upper hinge; …
B6: E104.v2 IgG1 hinge variant G1-TH (antibody, V domains shown)
VH: EVQLVESGPGLVKPSETLSLTCTVSRFSLIGYAITWIRQPPGKGLEWIGGISSAATTFYSSWAKSRVTISRDTSKNQVSLKLSSVTAADTAVYYCARDPRGYGAALDRLDLWGQGTLVTVSS
VL: DIQMTQSPSSLSASVGDRVTITCQSIKSVYNNRLGWYQQKPGKAPKLLIYETSILTSGVPSRFSGSGSGTDFTLTISSLQPEDFATYYCAGGFDRSGDTTFGQGTKVEIK
notes: as for B3
B7: humanized E104.v2 IgG1 (antibody, V domains shown)
VH: EVQLVESGPGLVKPSETLSLTCTVSRFSLIGYAITWIRQPPGKGLEWIGGISSAATTFYSSWAKSRVTISRDTSKNQVSLKLSSVTAADTAVYYCARDPRGYGAALDRLDLWGQGTLVTVSS
VL: DIQMTQSPSSLSASVGDRVTITCQSIKSVYNNRLGWYQQKPGKAPKLLIYETSILTSGVPSRFSGSGSGTDFTLTISSLQPEDFATYYCAGGFDRSGDTTFGQGTKVEIK
notes: variable domain of the heavy chain as in m6 (PDB 6VVU, Fab heavy chain) with V71R and F78V (Kabat numbering); human IgG1 heavy chain constant region; as the light chain of m6 (PDB 6VVU, Fab light chain); IgG1; also called IgG1.v2; WT IgG1 hinge; source: 293 cells, transient transfection, purified (MabSelect SuRe, SEC); copies: 2 + 2
B8: E104.v2 IgG1 hinge variant G1 + GG (antibody, V domains shown)
VH: EVQLVESGPGLVKPSETLSLTCTVSRFSLIGYAITWIRQPPGKGLEWIGGISSAATTFYSSWAKSRVTISRDTSKNQVSLKLSSVTAADTAVYYCARDPRGYGAALDRLDLWGQGTLVTVSS
VL: DIQMTQSPSSLSASVGDRVTITCQSIKSVYNNRLGWYQQKPGKAPKLLIYETSILTSGVPSRFSGSGSGTDFTLTISSLQPEDFATYYCAGGFDRSGDTTFGQGTKVEIK
notes: as for B4
B9: E104.v2 IgG1 hinge variant G1-KTH (antibody, V domains shown)
VH: EVQLVESGPGLVKPSETLSLTCTVSRFSLIGYAITWIRQPPGKGLEWIGGISSAATTFYSSWAKSRVTISRDTSKNQVSLKLSSVTAADTAVYYCARDPRGYGAALDRLDLWGQGTLVTVSS
VL: DIQMTQSPSSLSASVGDRVTITCQSIKSVYNNRLGWYQQKPGKAPKLLIYETSILTSGVPSRFSGSGSGTDFTLTISSLQPEDFATYYCAGGFDRSGDTTFGQGTKVEIK
notes: as for B3

In the assay the target is T1, human βI-tryptase monomer (Homo sapiens, UniProt Q15661).
T1 construct: mature human βI-tryptase, Ile31-Pro275 of Uniprot Q15661 (Ile16-Pro246 in chymotrypsinogen numbering); The monomer used in SPR and HDX-MS; also called monomeric βI-tryptase; monomeric β-tryptase
T1 sequence (Q15661 31-275): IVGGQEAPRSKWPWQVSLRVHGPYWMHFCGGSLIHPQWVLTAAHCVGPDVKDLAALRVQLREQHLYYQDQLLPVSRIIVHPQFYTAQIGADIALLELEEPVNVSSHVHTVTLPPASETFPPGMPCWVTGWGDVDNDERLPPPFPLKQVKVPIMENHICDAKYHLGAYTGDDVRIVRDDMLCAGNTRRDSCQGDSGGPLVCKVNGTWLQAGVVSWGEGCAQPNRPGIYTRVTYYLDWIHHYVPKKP
Kind of assay: SPR; Biacore T200; E104 IgG variants captured on immobilised mouse anti-human IgG (Fc) antibody on CM5 chips; threefold dilutions of human βI-tryptase monomer injected at 30 µL/min, 25 °C; 1:1 Langmuir model; n = 2. The conditions noted are these: both partners purified. In general terms: SPR reads the build-up and loss of mass on a sensor chip optically.
B1 returned a Kd of 0.5 ± 0.02 nM.
As for B2, the affinity, expressed as Kd, was 0.4 ± 0.1 nM.
Take B3: the Kd turned out to be 0.6 ± 0.1 nM.
B4 returned a Kd of 0.5 ± 0.01 nM.
For the molecule B5, binding was characterised by a dissociation constant (Kd) of 0.6 ± 0.1 nM.
With B6, binding was characterised by a dissociation constant (Kd) of 0.5 ± 0.07 nM.
Next, B7: 0.6 ± 0.01 nM.
For B8, the Kd turned out to be 0.4 ± 0.02 nM.
B9 gave a Kd of 0.5 ± 0.09 nM.

For orientation: Kd means the constant that tells how readily two partners part at equilibrium.
